Assay results as given in the DeepSol protein solubility set.

Assay: soluble on expression in E. coli; label from the status in PepcDB or PDB records
In the case of “MASVHGITVKNAQGEDTPLSNYQGKVLIIVNVASQCGLTNSNYNQFKELLDVYKKDGLEVLAFPCNQFGGQEPSCEIDIAAFVADKFKFEPTLFQKIDVNGDNTAPLYKFLKQEKGGFLVDAIKWNFTKFLVGRDGHVIKRFSPTTEPKDMKKDIEAALQAKL”, the “soluble on expression in E. coli” value is reported as “not soluble”.
In the case of “MARNPRTTVRRILNSAPRSLLIQSVTIVALDPTDNNHGSHQPGSNGPSNSSTQADNFETETTADEERQKEDGVEDELEDEETTGFIDEDGEIRYPVDEVGNYEIDQEAETDESFYLDTQRDSSLCDERSQLCRSLSDQNLRTTFFLITTTNSKAAILRYLHFHNVSQDSILRKLLLNDSHLTLVEVCNLCAQNIELCKCEDMQEKCQLIFGDLKKWLEVILNSFANIMMKTKTTILEGYNSSSPINKGIFKKKLLSEMADNEMWMHFESSFDGIKVHKNGNQNIWPYSLLNLDLEDVHRASPQALILAALFIGFKNPTTKIHDRLTQWILLQMDEHVFFSEGVAWKADLTCANHDDPARRIVYNQCGLRSSGSCNFCLNQETECKINDEYTTLRENLTGSCPSTMNDGLRQRNQHSHFHKHVLYMHLCPVTSNARMLPKRVHFSALFSKGKWNLFPSKSVDFSSTPSLPSRFRSLSGKASQCTGSEKALSIVVAAAFSGELGGVSSAIILSIHGLYRLCIEPQSITDETLHLKIEQISKSIEVLIVKRAPEMLNGIKVHQVLYHLARMTELYGSLFPLSTQWFEYFYHTIQRTLVPEIYNGLGMSIMRKMSALQEIKTEAAFRLHTNHQFRTEANLKMCYELGLLRRLKRISVVPTPPQYQQFCETGDVFLNVVYHDGIRYSNYCNKKTDDSNVTFIEYARVRFAKIIGMLLKENNTDLRFILKKYCNTNDHLIDISNKLYEEDVPQMHIQNWVDSVSKSSFGGRVTLTNTVVVVSADSIVGHAVVVKRNNNCVALPFSRRISLS”, the “soluble on expression in E. coli” value is reported as “not soluble”.
In the case of “MNPLLQDYARILLEWNQTHNLSGAKNLSELEPQITDALKPLEFIKDFKSCLDIGSGAGLPAIPLALEKPEVKFILLEPRIKRAAFLNYLKSVLPLKNIEIIKKRLEDYQNLLQVDLITSRAVASSSFLIEKSQRFLKDKGYFLFYKGEQLKDEIACKDTECFMHQKRVYFYKSKESLCLEHHHHHH”, the “soluble on expression in E. coli” value is reported as “soluble”.
With “ASDHQTQAGKPQPLNPKIIIFEQENFQGHSHELSGPCPNLKETGMEKAGSVLVQAGPWVGYEQANCKGEQFVFEKGEYPRWDSWTSSRRTDSLSSLRPIKVDSQEH” the “soluble on expression in E. coli” value was “soluble”.
In the case of “MVPSFPFQRLPNKPFQNVLKSMSVGNLLSYSMCSEASKSHVTNLKVKINSFEINVTENVHLFVKSEHGPTFNFRTVTSANGNISDDVTPANENEKHRWYKKGFELRNWIEHFLSVLNHSKIDKLNFISQQGERSKNDYLRDSLEGFKVDCFTVQQCSESYQRSIFRNFSPINTFIICATGAESTKAISSALPHNLKDFGYVSRGATWNFSLDNLLLSNSRNLVVIEARFSFPDINMFLKHWLNGSNRRLTNAYFIYTTPLVSEDISKGLPFSIPSEAEISKLPSDLMEHRETMFQLKRKFDSTATIVLKQNNGKHVFNMFVEHF”, the “soluble on expression in E. coli” value is reported as “not soluble”.
For “MAHHHHHHMTQQRGKKAAPSKAAVANASASAPDPPPFFSMGPATFTDAIVITKVISVVLPLRHLRDRNILHTTLLKKLLHRPYEASAEDLAQQQLSQQETDDGGKHDCGAHSALDNLAAPTSSSSSTPYVIVHIKSAEIHADTARQVNPRGDVQVNVMVTLVAARLQHGICAGVSEASPFTSCMQVRVPTVAVSAAVAARGSTDDAATLLLGDALEAGADNVSQEGVKDEKAEPSGGDTALDASVSATTTAAAAKRSCCTGIPADQQLRVTARCLEDEPIVPGQAVLLISEPAAMRCMGIRPPRAAPGSFYLTETTQPSAQFSSGEAEGGPEARPKKRARKSRASAGGTGGATPARRIVSIECAIPKREEDGEGGAAAGPRKGPRKRPHT”, the “soluble on expression in E. coli” value was “not soluble”.
For “MKFTWIALPGVLLLSACSSSQPNAPRPPRIGMPNPAAVYCEQQGGTLMPVQTPQGVRSDCKLPNGEIIDEWTLWRREHPDTKK”, the “soluble on expression in E. coli” value was “not soluble”.
With “MGSDKIHHHHHHMKDKVVVSQLGARMHYAVPRIFASAGRLAHFYTDICATKGWPRIVNSFPATLYPAPVKRLAGRLPKGVPTALTTVFSNFGLRSVLRHMRAKDVVEETSHAIWAGSIFSEMVARRGFHGAAGLYAFSGDALEQMQAAKQQGLWTAVEQMIAPRDVVEMLLNQEMKRFPAWAGPVQENPHARLFAEREKAEWRLADVIVCPSEFVRKNVVACGGPEDRCVVVPYGVNAAVANNRPARMPGPIRVLTVGEVGLRKGSPYVVEASRLMEGSARFRMAGRVRLADDVKQQISQWVELRGIVPRSQIAEEFRWADVFLLPSLCEGSATAVYEALAAGLPVITTENTGSVVRDGIEGFIVPVCDPEAIATAVRALAGNPELMRSMSANALLRAAEHTVESYGERLLAVLSGPHLAGSVGLCQTEEARYLGNNTI” the “soluble on expression in E. coli” value was “not soluble”.
In the case of “TSKINWNISVNATTYKNKILTLPEEKRESGIWNGIFKMVEGGSYYDYYIKEWAGVDPEDGKAMWYKDVTDKNGNTTKETTKTYSEATDYKAGCALPDLYGGISTSLNAYGFDFSIALTYQLGGQGYDYTYATLMNSAQGAGTNYHNDILNAWTPENKYTDVPKLNAKESNNNSTSTRFLTSTSYLSLQNISVGYTLPKNWIAKLGCESLRVYFVADNVALLSARKGYDPRTNWNGESNYNYSALRSISGGITMKF”, the “soluble on expression in E. coli” value is reported as “not soluble”.
With “MAHHHHHHMSLPASHTTTPATASPEVLLAACTAEVQQLRDALHEVTLRERDGCSGSRGGTGGVAGGALGDVWEGKYLAMIRKNRDLTVQLGTTQQQLAAAQKALQAEQEKTQRLVAAVTVSSLGARGAKAGSKSAAGAAGVDDGCNSNSGSKSGGGSSGSEGAAAASSAAVARVYDKLHQKQLAMAEVQRENVALRSLIQREVGLRDDTKEVNRLLRRATAVSSNGGSAAAAAGGTSASGADGGGWRGRAEEIVLLKSKLKDAQREVEEMAAAQSSSENGTDACTDPLSLPASVRAFLGASGDPAAEARSVVTTTTAQVRRPRRDVDDDARDRLSAMQQQRAAQQRQLAADLAELQQQLNEERMRSSALQARTKTMKSELDTLRSYVDTILEKSSTDDELVEAYKTELQRAHEEARHWRRVAADALKEAGGGKTSAALTVSGVHNGLNNAAAAAVRTAPYRKAAGDEKAVAAGGGDAGNVRGAPLPLPPPQPLTSFSRSLYEWVCQACDEVPEGKEQERTEPAVAASAKQLAAVLRQAFQHLVLVEQHTVAGNDMGHASTDSASSESILLKENAALKTRIRALSELMEKELQAQRVLWATAAAGAGATPSTETKERERQQ” the “soluble on expression in E. coli” value was “not soluble”.
With “MYAALFPGQGSHRVGMGRALYEASPAAKEVLDRAEAALPGLLKLMWEGPEEALTLTENQQPALLAAGYAAYRAFLEAGGKPPALPEGHSLGEWTAHVAAGTLELEDALRLVRLRGRYMQEAVPVGEGAMAAVLKLPLEEIQKALEGLEGVEIANLNAPEQTVISGRRQAVEEAAERLKERRARVVFLPVSAPFHSSLMAPARKRLAEDLAQVPLRRPRFPVYSNVTARPEEDPERIRALLLEQITAPVRWVEILRDMEARGVKRFLEFGSGEVLKGLVLRTLKEAEALSVQDPDSLRKALEVERA” the “soluble on expression in E. coli” value was “soluble”.
With “MRLALAVLILLLSIAPAMALCSYEVVEERYADPFTVDISSMPSLKDLPVDDPSDGIDWVKVPLPKPCVNGMGKDTFIMVRKGSSNNLLIFFEGGGACADYETCKPMLCTDLKSCKPLLGIGSVVALESNFCFLKLYYRGGIFDVKKAENPFRDWTIVFVPYNTGDLHMGNRVVRYFDDGKEKTIYHVGYVNAIVAMRWIKENGNFDRIVVAGSSAGGYATLLHGYTAWSIFGKPVTVINDAGPGINPDSDSKFQVNEIMERWGSKQNFPPEALQYFEGKDPAYAIEYFLDKCSDCVYGFFEDQKDLVIGSVFSAYWPWQFKTRLLKVTDELRDYSDRYCRFLPYDYQHTVLTGGLLYPLQKDRFYCEKVGGYRVYEWVKELLRGNCVDLVELEHHHHHH” the “soluble on expression in E. coli” value was “not soluble”.
With “SPRPRKRQTGTAGPDRKKLSGKRTKTENSESTSVKLENSSLEMTTTFKNGGKNLSNYWLMKSEPESRLEKGIDMKFSIEDLKAQPKQTACWDGVRNYQARNFLRAMKLEDEAFFYHSNCKQPGIVGLMKIVKEAYPDHTQFEKSNPHYDPSSKEDDPKWSMVDVQFVRMMKRFIPLEELKTYHQAHKATGGPLKSMTLFTRQRLSVQPLTQEEFDFILSLEETEPS” the “soluble on expression in E. coli” value was “soluble”.
